Laboratory results from the RNAGym collection of RNA variant scans (doi:10.7554/elife.80360).

B1: Hairpin Ribozyme (parent)
chain: GUCCUCUUUCACGUGCGCGUGAAAGAGAGAAGUGAACCAGAGAAACACACGUUGUGGUAUAUUACCUGGUA

Variants of: B1
Test: self-cleavage, relative activity (ratio to wild type); higher = more cleavage; co-transcriptional

| Variant | self-cleavage |
| --- | --- |
| GUCAUCUUUCACGUGCGCGUGAAAGAGAGAAGUGAACCAGAGAAACACCCGUUGUGGUAUAUUACCUGGUA [C4A A49C] | 0.213 |
| GUCAUCUUUCACGUGCGCGUGAAAGAGAGAAGUGAACCAGAGAAACACGCGUUGUGGUAUAUUACCUGGUA [C4A A49G] | 0.157 |
| GUUCUCUUUCACGUGCGUGUGAAAGAGAGAAGUGAACCAGAGAAACACACGUUGUGGUAUAUUACCUGGUA [C3U C18U] | 0.487 |
| GUCAUCUUUCACGUGCGCGUGAAAGAGAGAAGUGAACCCGAGAAACACACGUUGUGGUAUAUUACCUGGUA [C4A A39C] | 0.166 |
| GUUCUCUUUCACGUGCGCGUGAAAGAGAGAAGUGAUCCAGAGAAACACACGUUGUGGUAUAUUACCUGGUA [C3U A36U] | 0.33 |
| GUUCUCUUUCACGUGCGCGUGAAAGAGGGAAGUGAACCAGAGAAACACACGUUGUGGUAUAUUACCUGGUA [C3U A28G] | 0.554 |
| GUUCUCUUUCACGUGCGCGUGAAAGAGUGAAGUGAACCAGAGAAACACACGUUGUGGUAUAUUACCUGGUA [C3U A28U] | 0.582 |
| GUUCUCUUUCACGUGCGCGUGAAAGAGAGAAGUGAACCAGAGAAACACACAUUGUGGUAUAUUACCUGGUA [C3U G51A] | 0.467 |
| GUUCUCUUUCACGUGCGCAUGAAAGAGAGAAGUGAACCAGAGAAACACACGUUGUGGUAUAUUACCUGGUA [C3U G19A] | 0.443 |
| GUUCUCUUUCACGUGCGCCUGAAAGAGAGAAGUGAACCAGAGAAACACACGUUGUGGUAUAUUACCUGGUA [C3U G19C] | 0.373 |
| GUUCUCUUUCACGUGCGCGUGAAAGAGAGAAGUGAACCAGAGAAACACACGGUGUGGUAUAUUACCUGGUA [C3U U52G] | 0.446 |
| GUUCUCUUUCACGUGCGCGUGAAAGAGAGAAGUGAACCAGAGAAACACACGCUGUGGUAUAUUACCUGGUA [C3U U52C] | 0.611 |
| GUUCUCUGUCACGUGCGCGUGAAAGAGAGAAGUGAACCAGAGAAACACACGUUGUGGUAUAUUACCUGGUA [C3U U8G] | 0.245 |
| GUUCUCUUUCACGUGCGCGAGAAAGAGAGAAGUGAACCAGAGAAACACACGUUGUGGUAUAUUACCUGGUA [C3U U20A] | 0.374 |
| GUUCUCUUUCACGUGCGCGUGAAAGAGAGAAGUGAACCAGAGCAACACACGUUGUGGUAUAUUACCUGGUA [C3U A43C] | 0.161 |
| GUUCUCUUUCACGUGCGCGUGAAAGAGAGAAGUGAACCAGAGAAACACACGUUAUGGUAUAUUACCUGGUA [C3U G54A] | 0.251 |
| GUUCUCUUUCACGUGCGCGUGAAAGAGAGAAGUGAACCAGAGAAACACACGUUGUCGUAUAUUACCUGGUA [C3U G56C] | 0.182 |
| GUUCUCUUUCACGUGCGCGUGAAAGAGAGAAGUGAACCAGAGAAACACACGUUGUUGUAUAUUACCUGGUA [C3U G56U] | 0.0961 |
| GUUCUCUUUCACGCGCGCGUGAAAGAGAGAAGUGAACCAGAGAAACACACGUUGUGGUAUAUUACCUGGUA [C3U U14C] | 0.451 |

| Variant | self-cleavage |
| --- | --- |
| GUUCUCUUUCACGAGCGCGUGAAAGAGAGAAGUGAACCAGAGAAACACACGUUGUGGUAUAUUACCUGGUA [C3U U14A] | 0.495 |
| GUUCUCUUUCACGUGCGCGUGAAAGAGAGAAGUGAACCAGAGAAAUACACGUUGUGGUAUAUUACCUGGUA [C3U C46U] | 0.151 |
| GUUCUCUUUCACGUGCGCGUGAAAGAGAGAAGUGAACAAGAGAAACACACGUUGUGGUAUAUUACCUGGUA [C3U C38A] | 0.106 |
| GUUCUCUUUCACGUGCGCGUGAAAGAGAGAAGUGAACCAGAGAAACACAGGUUGUGGUAUAUUACCUGGUA [C3U C50G] | 0.174 |
| GUUCUCUUUCACGUGCGCGUGAAAGAGAGAAGUGAACCAGAGAAACACAUGUUGUGGUAUAUUACCUGGUA [C3U C50U] | 0.187 |
| GUCAUCUUUCACGUGCGCGUGAAAGAGAGAAGUGACCCAGAGAAACACACGUUGUGGUAUAUUACCUGGUA [C4A A36C] | 0.138 |
| GUUCUCUUUCACGUGCGCGUGAAAGAGAGAAGUGAACCAGAGAAACACACGUUGUGGUUUAUUACCUGGUA [C3U A59U] | 0.205 |
| GUUCUCUUUCACGUGCGCGUGAAAGAGAGAAGUGAACCAAAGAAACACACGUUGUGGUAUAUUACCUGGUA [C3U G40A] | 0.169 |
| GUUCUCUUUCACGUGCGCGUGAAAGAGAGAAGUGAACCAGAGAAACACACGUUGUGGUAUAUUACCUAGUA [C3U G68A] | 0.183 |
| GUCAUCUUUCACGUGCGCGUGAAAGAGAGAAGUGAACCAGAGAAGCACACGUUGUGGUAUAUUACCUGGUA [C4A A45G] | 0.151 |
| GUCAUCUUUCACGUGCGCGUGAAAGAGAGAAGUGAACCAGAGAAUCACACGUUGUGGUAUAUUACCUGGUA [C4A A45U] | 0.148 |
| GUUCUCAUUCACGUGCGCGUGAAAGAGAGAAGUGAACCAGAGAAACACACGUUGUGGUAUAUUACCUGGUA [C3U U7A] | 0.427 |
| GUCAUCUUUCACGUGCGCGUGAAAGAGAGAAGUGAACCAGAGAAACUCACGUUGUGGUAUAUUACCUGGUA [C4A A47U] | 0.0985 |
| GUCAUCUUUCACGUGCGCGUGCAAGAGAGAAGUGAACCAGAGAAACACACGUUGUGGUAUAUUACCUGGUA [C4A A22C] | 0.131 |
| GUCAUCUUUCACGUGCGCGUGUAAGAGAGAAGUGAACCAGAGAAACACACGUUGUGGUAUAUUACCUGGUA [C4A A22U] | 0.22 |
| GUCAUCUUUCACGUGCGCGUGGAAGAGAGAAGUGAACCAGAGAAACACACGUUGUGGUAUAUUACCUGGUA [C4A A22G] | 0.222 |
| GUCAUCUUUCACGUGCGCGUGAAAGAGAGAUGUGAACCAGAGAAACACACGUUGUGGUAUAUUACCUGGUA [C4A A31U] | 0.245 |
| GUUCUCUUUCACGUGCGCGUGAAAGAAAGAAGUGAACCAGAGAAACACACGUUGUGGUAUAUUACCUGGUA [C3U G27A] | 0.187 |
| GUUCUCUUUCACGUGCGCGUGAAAGACAGAAGUGAACCAGAGAAACACACGUUGUGGUAUAUUACCUGGUA [C3U G27C] | 0.177 |
